In patent US20160207991A1:
Where two headings read alike, the source gives them in different places.

Key:
[1] = biological target: human brain-derived neurotrophic factor (BDNF) (human) (UniProt P23560); assay: cell-based or functional assay
[2] = biological target: human brain-derived neurotrophic factor (BDNF) (human) (UniProt P23560); assay: cell-based or functional assay; remark: listed apart in the source

Chain of human brain-derived neurotrophic factor (BDNF) (human) (P23560 129-247 limits assumed): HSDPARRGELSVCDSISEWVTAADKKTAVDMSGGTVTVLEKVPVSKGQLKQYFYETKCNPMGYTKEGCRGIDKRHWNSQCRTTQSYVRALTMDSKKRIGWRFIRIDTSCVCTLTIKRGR

PathHunter pTrkB assay in U2OS TrkB/p75NTR cells, 300 pM BDNF [1]: 0.0044 µM
PathHunter pTrkB assay in U2OS TrkB/p75NTR cells, 300 pM BDNF [2]: 0.024 µM
pERK assay in U2OS TrkB/p75NTR cells, 150 pM BDNF [2]: 0.0076 µM
Substance: TrkB-Fc (Sigma T8694) (from UniProt P15209 32-429) (Fc fusion)
